Molecular target: T1, human IL-6 receptor (Homo sapiens, UniProt P08887)
T1 sequence (P08887 20-468): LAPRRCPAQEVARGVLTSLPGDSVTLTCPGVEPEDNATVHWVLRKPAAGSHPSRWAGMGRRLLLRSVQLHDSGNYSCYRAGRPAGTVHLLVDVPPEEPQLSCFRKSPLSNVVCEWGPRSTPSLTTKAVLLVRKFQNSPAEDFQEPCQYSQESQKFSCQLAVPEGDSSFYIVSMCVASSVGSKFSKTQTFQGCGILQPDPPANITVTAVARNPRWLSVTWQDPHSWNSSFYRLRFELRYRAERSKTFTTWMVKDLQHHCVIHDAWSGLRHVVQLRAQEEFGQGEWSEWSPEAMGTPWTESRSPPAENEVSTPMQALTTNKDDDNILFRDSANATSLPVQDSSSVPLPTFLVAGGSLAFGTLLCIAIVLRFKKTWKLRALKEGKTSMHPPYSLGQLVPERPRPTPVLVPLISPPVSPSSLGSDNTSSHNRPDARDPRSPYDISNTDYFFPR
Experiment: Inhibition of binding of human IL-6 to human IL-6 receptor
Settings: compared with mouse antibody and chimeric antibody
From the text: In order to express genes of L chain and H chain of the reshaped human PM-1 antibody thus constructed, DNA encoding the L chain or the H chain was separately inserted into a vector containing the human elongation factor 1α (HEF-1α) promoter, and a vector expressing the L chain or the H chain of the reshaped human PM-1 (hPM-1) antibody was constructed. By simultaneously inserting these two expression vectors into CHO cells, a cell line that produces reshaped human PM-1 antibody (hPM-1) was established.

## hPM-1: reshaped human PM-1 antibody: CDRs of mouse anti-IL-6 receptor antibody PM-1 grafted to human antibody, produced in CHO cells
  inhibition of the binding of human IL-6 to human IL-6 receptor: inhibited the binding of human IL-6 to human IL-6 receptor in a similar manner to that of mouse antibody and chimeric antibody
